Patent US20190030114

Experiments:
[1] = target: T1, striatal-enriched protein tyrosine phosphatase (STEP), P54830
T1 chain: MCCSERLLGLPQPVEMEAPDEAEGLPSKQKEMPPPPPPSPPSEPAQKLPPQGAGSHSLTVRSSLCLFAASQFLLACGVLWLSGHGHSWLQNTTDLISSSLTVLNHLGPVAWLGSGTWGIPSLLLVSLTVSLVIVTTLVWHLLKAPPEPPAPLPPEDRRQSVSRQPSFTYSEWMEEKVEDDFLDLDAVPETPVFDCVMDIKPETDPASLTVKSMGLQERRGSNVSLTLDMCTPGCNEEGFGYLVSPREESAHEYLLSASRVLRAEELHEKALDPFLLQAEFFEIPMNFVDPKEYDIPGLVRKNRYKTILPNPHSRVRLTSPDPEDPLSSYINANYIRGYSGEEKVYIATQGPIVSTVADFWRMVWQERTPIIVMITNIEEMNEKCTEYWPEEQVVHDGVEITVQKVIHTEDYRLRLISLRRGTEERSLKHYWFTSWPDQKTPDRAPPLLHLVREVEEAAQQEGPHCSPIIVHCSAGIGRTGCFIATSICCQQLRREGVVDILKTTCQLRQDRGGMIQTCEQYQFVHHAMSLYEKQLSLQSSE

B1: calpain-1 (µ-calpain), Mus musculus (protein)
chain: MTEELITPVYCTGVSAQVQKKRDKELGLGRHENAIKYLGQDYETLRARCLQSGVLFQDEAFPPVSHSLGFKELGPHSSKTYGIKWKRPTELMSNPQFIVDGATRTDICQGALGDCWLLAAIASLTLNETILHRVVPYGQSFQDGYAGIFHFQLWQFGEWVDVVIDDLLPTKDGKLVFVHSAQGNEFWSALLEKAYAKVNGSYEALSGGCTSEAFEDFTGGVTEWYDLQKAPSDLYQIILKALERGSLLGCSINISDIRDLEAITFKNLVRGHAYSVTGAKQVTYQGQRVNLIRMRNPWGEVEWKGPWSDSSYEWNKVDPYEREQLRVKMEDGEFWMSFRDFIREFTKLEICNLTPDALKSRTLRNWNTTFYEGTWRRGSTAGGCRNYPATFWVNPQFKIRLEEVDDADDYDNRESGCSFLLALMQKHRRRERRFGRDMETIGFAVYQVPRELAGQPVHLKRDFFLANASRAQSEHFINLREVSNRIRPPPGEYIVVPSTFEPNKEGDFLLRFFSEKKAGTQELDDQIQANLPDEKVLSEEEIDDNFKTLFSKLAGDDMEISVKELQTILNRIISKHKDLRTNGFSLESCRSMVNLMDRDGNGKLGLVEFNILWNRIRNYLTIFRKFDLDKSGSMSAYEMRMAIEAAGFKLNKKLHELIITRYSEPDLAVDFDNFVCCLVRLETMFRFFKLLDTDLNGVVTFDLFKWLQLTMFA
B1 was tested. Which “STEP33 (cleavage product of STEP), Western blot of retina 3 h after IOP elevation” value [1] did it give?
Its value is “STEP33 was present in WT and calpain-1 KO mice (no part of calpain-1)”.

B2: calpain-2 (m-calpain), Mus musculus (protein)
chain: SHERAIKYLNQDYETLRNECLEAGALFQDPSFPALPSSLGYKELGPYSSKTRGIEWKRPTEICADPQFIIGGATRTDICQGALGDCWLLAAIASLTLNEEILARVVPPDQSFQENYAGIFHFQFWQYGEWVEVVVDDRLPTKDGELLFVHSAEGSEFWSALLEKAYAKINGCYETLSGGATTEGFEDFTGGIAEWYELRKPPPNLFKIIQKALEKGSLLGCSIDITSAADSEAVTYQKLVKGHAYSVTGAEEVESSGSLQKLIRIRNPWGQVEWTGKWNDNCPSWNTVDPEVRANLTERQEDGEFWMSFSDFLRHYSRLEICNLTPDTLTCDSYKKWKLTKMDGNWRRGSTAGGCRNYPNTFWMNPQYLIKLEEEDEDEEDGGRGCTFLVGLIQKHRRRQRKMGEDMHTIGFGIYEVPEELTGQTNIHLGKNFFLTTRARERSDTFINLREVLNRFKLPPGEYVLVPSTFEPHKDGDFCIRVFSEKKADYQAVDDEIEANIEEIDANEEDIDDGFRRLFVQLAGEDAEISAFELQTILRRVLAKRQDIKSDGFSIETCKIMVDMLDEDGSGKLGLKEFYILWTKIQKYQKIYREIDVDRSGTMNSYEMRKALEEAGFKLPCQLHQVIVARFADDELIIDFDNFVRCLVRLETLFKIFKQLDPENTGTIQLNLASWLSFSVL
With B2 as the protein, how does the “SBDP levels, immunoblot of mouse retinal extracts 6 h after intravitreal NMDA injection” value (spectrin, P16546) read?
The value was “Levels of SBDP were significantly increased; injection of C2l significantly suppressed NMDA-induced changes in SBDP”.

What about the “STEP33 (cleavage product of STEP), Western blot of retina 3 h after IOP elevation” value [1] of the same protein?
The value was “STEP33 was present in WT and calpain-1 KO mice but not in C2l-injected WT mice following increased IOP”.
